Data from the RNAGym collection of RNA variant scans (doi:10.1073/pnas.2313332121).

B1: TPR t1 (parent)
chain: GACCAAUCUGCCCUCAGAGCUCGAGAACAUCUUCGGAUGCAGAGGAGGCAGGCUUCGGUGGCGCGAUAGCGCCAACGUCCUCAACCUCCAAUGCAUCCCACCACAUGAUGAUGCCUGAAGAGCCUUGGUUUUUUG

Variants of: B1
Experiment: polymerase ribozyme fitness, log enrichment relative to wild type (log ratio); higher = more active; in vitro selection for triplet polymerase activity
Procedure, shortened: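 Mutant libraries for each subunit of a heterodimeric triplet polymerase ribozyme were made by PCR and then transcribed. Each library underwent one round of in vitro selection in triplicate: annealing with a biotinylated primer, the partner subunit and triplets, frozen incubation at −7 °C, gel excision of extended constructs, streptavidin-bead capture and RT-PCR. Input and output libraries were Illumina-sequenced, and only genotypes with ≥10 input reads and ≥1 read per output were kept. Fitness is the logarithm, base 2, of genotype enrichment over wild-type enrichment, computed from inverse-variance-weighted replicate averages.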

| Variant | polymerase ribozyme fitness (log ratio) |
| --- | --- |
| A90G C114A | -1.4 |
| U81A G113C U130G U132A | -3.31 |
| C86A U112A | 0.808 |
| C89U C101A | -1.39 |
| C85U C98U | -1.57 |
| U92G G93C | -3.76 |
| A84U C88U G93A G128A | -2 |
| A91G C102A C104A U109A | -5.59 |
| A91U G120U | -1.93 |
| U81A A121C | 0.745 |
| C86G G128A | -2.15 |
| U87A A119U G128A U131G | -1.07 |
| A91G G117U | -3.4 |
| A83U U133G | -0.873 |
| U81G G120U | -3.76 |
| C82G C101U C115A U125A | -1.73 |
| C88A U96C | -0.897 |
| C88A U96G | -0.386 |
| C86A C98U | -0.468 |
| C86U G110U | -1.02 |
| A83U C101G | -1.74 |
| C85G G128A | -2.55 |
| G93A G135C | -1 |
| U81A U87A | -1.41 |

| Variant | polymerase ribozyme fitness (log ratio) |
| --- | --- |
| C82A U125A | -0.778 |
| C89A C114G | -2.82 |
| C89A C114U | -0.329 |
| U81A G120A | -0.668 |
| A84G G93C G127U | -1.68 |
| C88U A105G C123U | -1.46 |
| C86U A91G C98U | -2.63 |
| U87G A119G | 1.67 |
| C80U C101U G128A | -2.13 |
| C86G A91G | -1.96 |
| C88G C94A A111C U133A | -3.52 |
| U87A G110C | -3.47 |
| C89G U92A G122A | -4.41 |
| C86A U132C U133A | -1.36 |
| A91G G93C G120C | -2.18 |
| C88A C94A G117C | -5.02 |
| C88G C102U G117U | -6.89 |
| A83C C85A C115A G117A | -6.05 |
| C89G C94G | -3.06 |
| C89G G93A C94G C124G G128C | -7.66 |
| U81G G127C | -4.77 |
| A83C A84C | -0.925 |
| C86U U112A C123U | 0.628 |
| A83G C86G G127U U132C | -2.25 |

| Variant | polymerase ribozyme fitness (log ratio) |
| --- | --- |
| A83C U126C | -1.26 |
| U92C G117A | -2.67 |
| C89G U125A | -2.07 |
| C82A G120U | 0.156 |
| A84U G110U | -1.34 |
| C80U C123A | -0.37 |
| C82U G127U | -0.724 |
| G93A A100G U112C U131A | -2.69 |
| U87A G120A | 0.663 |
| C89U A90G | 0.141 |
| U92C U125G | -1.76 |
| C86U G107U | -5.23 |
| C82A C94A C104A | -3.13 |
| U87A C99U | -3.14 |
| C82G G127A | -2 |
| A83U C89U U96C U131G | -1.02 |
| U81C G93A C123A | -0.322 |
| C80U G113U | -3.41 |
| C89U A105U | -2.8 |
| A91U A111C | -2.44 |
| A90U G117C | -1.43 |
| G93A G128C | -2.72 |
| G93A G128A | -1.95 |
| A83G A84G C99U | -5.16 |

| Variant | polymerase ribozyme fitness (log ratio) |
| --- | --- |
| A84U C115G | -3.83 |
| C88U C104U | 0.689 |
| C89A C94A C104U G110A | -4.47 |
| C82U G120U | 0.312 |
| U87C U126G | -1.22 |
| A90C C104A | -3.78 |
| U81G U131A | -3.6 |
| C88U G120U | 0.291 |
| C88U G120C | 0.853 |
| C86G G93A G113C | -4.01 |
| U87G G120A | 0.0419 |
| C88U A119G | 1.04 |
| A83U C88A G128C | -3.29 |
| A84G C86A U96C G113A | -2.94 |
| A84U C86A U125G | -1.97 |
| A91C C114G | -2.5 |
| U81A U112A | 0.19 |
| U81A U112G | -0.661 |
| C85G C88U | -0.339 |
| G93A C123G | 0.42 |
| U92C G120U | 0.184 |
| C89A G120U | -1.79 |
| C89A A111U G113A | -5.69 |
| A91C U133A | -0.906 |

| Variant | polymerase ribozyme fitness (log ratio) |
| --- | --- |
| C85U G113U | -3.63 |
| C85U G120C | 0.93 |
| C85U G120U | 0.655 |
| C85G A111C | -3.12 |
| C86G U112A G117U G120A U126A | -5.82 |
| A91C C98G G113A | -5.51 |
| A83U C89A U96A | -2.34 |
| U87G U129C | 0.0365 |
| C82A C99U | -4.04 |
| A84U G93A | -1.11 |
| A84U G93U | -1.44 |
| C86U C124A | 1.32 |
| C88U C115A | -0.441 |
| U81G A95G | -4.01 |
| A84G G120A | -0.185 |
| U92G G122U C124U U126C | -5.41 |
| C86U G110A A111C | -4.3 |
| U81A A91U C101U | -3.43 |
| C85U U130A | -1.86 |
| U81A A90C U92C | -4.05 |
| U87A C123A | 0.223 |
| C89G C124A | 0.877 |
| A84G U106G | -3.32 |
| G93A G110U | -2.04 |

| Variant | polymerase ribozyme fitness (log ratio) |
| --- | --- |
| C85G A118U U126G | -3.39 |
| U87G G113C | -2.26 |
| C88U U116C G120C | -0.613 |
| C85A G117A | -2.97 |
| G93A U96A | -1.69 |
| C82U A95G | 0.358 |
| A90U G113A G128A | -3.47 |
| A90U G93U | -1.11 |
| U81A G127U | -2.76 |
| C88G G107U A111C A121U U125A | -3.56 |
| U92C U112A | -0.53 |
| C88G G107A U130C | -6.86 |
| C88U G120A G128A | -1.29 |
| U81G A118U | -2.58 |
| C89U G117A U129A | -3.55 |
| U81A U106C G110A G113C C114U A119G | -5.29 |
| A91U C101A | -2.72 |
| A90C U106A A108G | -2.24 |
| A84U C123A | -0.143 |
| C88U A100U G120A | -0.615 |
| C86U G93A C101G G122A | -3.73 |
| U81A C89U | -0.112 |
| C89A C101A G117A | -5 |
| C82U A83U A111U | -3.12 |

| Variant | polymerase ribozyme fitness (log ratio) |
| --- | --- |
| G93A A111U G122C | -4.63 |
| C85U G110C C115U A121G | -6.18 |
| U87C G110U | -0.496 |
| G93A C114A G122A U131A | -3.27 |
| C85U C94U | -1.2 |
| A83C C114G U132A | -2.52 |
| A83C C101A | -1.18 |
| C85U A100C | -1.76 |
| C85U A100U | -1.79 |
| U81G C88A | -2.78 |
| C85G U106G | -2.45 |
| U81G A84C G113A | -3.43 |
| C80U G93A | -1.52 |
| C82U U112A | 1.08 |
| C85G C94U C97U G120C | -0.74 |
| A91C U129A | -2.78 |
| C80U G120C | 0.704 |
| C80U G120U | -0.245 |
| U87G U109A | -3.08 |
| C88G G117C | -4.47 |
| A90C G120U | -1.31 |
| A83G G110A | -1.35 |
| U81G U112A | -4.16 |
